Assays:
[1] = target: T1, recombinant Crtac1B fragment #7 (negative control) (human, UniProt Q9NQ79 28-606); assay: antigen immobilized ELISA, hybridoma culture supernatant, color development at 655 nm same as plate without antigen
T1 construct: also called fCrtac1B (1-606)
T1 sequence: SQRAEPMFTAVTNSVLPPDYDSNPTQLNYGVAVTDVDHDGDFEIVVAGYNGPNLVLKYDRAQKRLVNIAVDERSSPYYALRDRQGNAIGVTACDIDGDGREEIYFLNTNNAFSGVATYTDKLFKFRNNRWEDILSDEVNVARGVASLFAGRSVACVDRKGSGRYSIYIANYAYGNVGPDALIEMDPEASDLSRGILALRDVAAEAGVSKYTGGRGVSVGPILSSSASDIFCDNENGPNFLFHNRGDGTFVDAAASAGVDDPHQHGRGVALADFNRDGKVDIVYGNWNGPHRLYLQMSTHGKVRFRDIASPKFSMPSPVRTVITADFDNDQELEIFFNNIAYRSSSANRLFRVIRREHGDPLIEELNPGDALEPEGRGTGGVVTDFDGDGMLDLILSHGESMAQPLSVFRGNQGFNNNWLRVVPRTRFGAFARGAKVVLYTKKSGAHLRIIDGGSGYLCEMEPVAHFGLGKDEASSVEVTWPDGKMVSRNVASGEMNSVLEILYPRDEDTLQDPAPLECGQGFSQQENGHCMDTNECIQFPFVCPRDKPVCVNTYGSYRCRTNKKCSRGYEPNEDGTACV
Method: (§1) A positive antigen (50 μL) and a negative control (50 μL) were added to each well of a 96 well plate, respectively. Then, the plate was incubated at 4° C. overnight, and the positive antigen and the negative control were immobilized in the well to obtain an antigen immobilized plate. Each well was washed twice with a washing solution (250 μL, 0.05% Tween (registered trademark) 20/20 mM potassium phosphate buffer (pH 7.4), 150 mM NaCl). To each well was added a blocking buffer (250 μL, 5% skim milk/20 mM potassium phosphate buffer (pH 7.4), 150 mM NaCl), and blocked at room temperature for 90 minutes. Culture supernatant (50 μL) of each hybridoma selected by primary screening was added to each well, and the cells were incubated at 37° C. for 1 hour. Each well was washed three times with a washing solution (250 μL). The HRP-labeled anti-mouse IgG antibody (MBL, product number 330) was diluted 1:1,000 with dilution buffer II (1% skim milk/20 mM potassium phosphate buffer (pH 7.4), 150 mM NaCl). A solution (50 μL) of this labeled antibody was added to each well, and the well was incubated at 37° C. for 1 hour. Each well was washed five times with a washing solution (250 μL). Chemical chromogenic substrate solutions (Bio-Rad, TMB Peroxidase EIA Substrate Kit) were added to respective wells at 50 μL, and the plate was allowed to stand at room temperature under shading for 30 minutes. The plate was set in a microplate reader (Thermo Fisher Scientific, Varioskan (registered trademark) Flash), and the color development intensity at 655 nm was measured for each well.
(§2) Reactivity of the monoclonal antibody contained in the culture supernatant of the hybridomas of clones 1B4 and 15C2 to the antigen was confirmed by ELISA using the 7 recombinant Crtac1B fragments described above. A specific operation was the same as that of the antigen immobilized ELISA method of Example 1. For comparison, ELISA was performed in the same manner using a 96 well plate in which no antigen was immobilized.
(§3) In addition, as to these monoclonal antibodies, the color development intensity when the recombinant Crtac1B fragments of #6 and #7 were used was substantially the same as that when a plate without immobilizing the antigen was used.

[2] = target: T2, recombinant Crtac1B fragment #6 (human, UniProt Q9NQ79 28-606); assay: as above
T2 construct: also called fCrtac1B (1-607)
T2 sequence: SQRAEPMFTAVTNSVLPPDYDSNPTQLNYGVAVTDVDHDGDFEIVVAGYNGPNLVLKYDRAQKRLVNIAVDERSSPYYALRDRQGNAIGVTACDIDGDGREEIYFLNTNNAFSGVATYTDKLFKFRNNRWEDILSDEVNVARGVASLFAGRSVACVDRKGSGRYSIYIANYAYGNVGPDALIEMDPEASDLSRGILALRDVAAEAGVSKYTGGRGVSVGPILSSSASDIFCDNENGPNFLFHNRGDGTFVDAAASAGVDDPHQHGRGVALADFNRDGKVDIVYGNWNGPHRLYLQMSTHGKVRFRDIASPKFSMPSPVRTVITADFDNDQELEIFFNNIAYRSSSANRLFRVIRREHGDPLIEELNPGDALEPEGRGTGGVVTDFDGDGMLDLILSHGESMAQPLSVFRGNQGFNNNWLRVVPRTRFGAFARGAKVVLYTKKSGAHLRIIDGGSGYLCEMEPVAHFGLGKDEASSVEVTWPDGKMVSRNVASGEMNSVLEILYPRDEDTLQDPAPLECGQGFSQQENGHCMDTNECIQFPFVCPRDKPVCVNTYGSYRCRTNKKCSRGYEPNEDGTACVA
Method: as §1, §2, §3

human Crtac1A = target: T3, human Crtac1A (human, UniProt Q9NQ79 28-661); assay: immunoprecipitation from human CSF and serum, then immunoblotting (Wes)
T3 construct: Recombinant protein (IB control sample) or native protein in human CSF and serum; also called rCrtac1A
T3 sequence: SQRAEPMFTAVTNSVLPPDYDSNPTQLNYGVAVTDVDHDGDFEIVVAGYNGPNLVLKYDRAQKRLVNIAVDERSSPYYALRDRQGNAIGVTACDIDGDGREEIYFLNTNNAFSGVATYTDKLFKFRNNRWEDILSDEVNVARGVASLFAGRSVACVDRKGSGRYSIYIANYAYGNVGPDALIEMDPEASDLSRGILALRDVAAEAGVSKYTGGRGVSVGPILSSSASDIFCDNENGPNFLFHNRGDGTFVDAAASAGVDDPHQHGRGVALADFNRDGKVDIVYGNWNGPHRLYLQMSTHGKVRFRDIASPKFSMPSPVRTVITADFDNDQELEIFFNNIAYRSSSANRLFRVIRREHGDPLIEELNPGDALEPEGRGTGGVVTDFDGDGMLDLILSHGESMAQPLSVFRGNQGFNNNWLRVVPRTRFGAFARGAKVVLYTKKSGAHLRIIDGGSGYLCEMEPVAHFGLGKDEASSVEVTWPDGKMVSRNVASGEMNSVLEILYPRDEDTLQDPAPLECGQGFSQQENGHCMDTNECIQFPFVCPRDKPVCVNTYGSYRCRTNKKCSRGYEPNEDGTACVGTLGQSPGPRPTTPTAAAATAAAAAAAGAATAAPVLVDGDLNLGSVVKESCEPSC
Method: For human CSF and human serum, immunoprecipitation using a monoclonal antibody purified from the culture supernatant of hybridomas of clones 1B4 and 15C2 was performed, and IB analysis by Wes was performed. For comparison, immunoprecipitation (IP) using an anti-hCrtac1 antibody (RD) and IB analysis using an anti-rat LOTUS antibody (ITM, 45-12C) were performed.
As a sample, CSF (300 μL) and serum (500 μL) were used per antibody. Each sample and protein G sepharose were mixed and rotated at 4° C. for 1 hour to remove contaminants that non-specifically bind to protein G from each sample in advance. Protein G solid phase-treated magnetic particles (60 μL, Veritas, Dynabeads (registered trademark) Protein G) were dispensed into 1.5-mL tubes, and washed twice with dilution buffer III (500 μL, 0.02% Tween (registered trademark) 20/PBS (pH 7.4)). Magnetic collection was performed to remove the supernatant, and each antibody (24 μg) and the above dilution buffer III (200 μL) were added to the magnetic particles. The tube was stirred at room temperature for 1 hour, and then collected to remove the supernatant. The magnetic particles were washed five times with the above dilution buffer III (300 μL), and then collected to remove supernatant. Each sample from which impurities were removed was added to the magnetic particles, and the tube was stirred at room temperature for 5 hours. […]

binding result [1]: no binding
binding result [2]: no binding
binding result (human Crtac1A): no binding
B1: monoclonal antibody derived from the hybridoma of clone 1B4 (antibody, mouse IgG1, kappa, V domains shown)
VH: EVQLQQFGAELVKPGASVKISCKASGYTFTDYNMDWVKQSHGKSLEWIGDINPNYDSSSYNQKFKGKATLTVDKSSSTAYMELRSLTSEDTAVYYCTRSGGTYWGQGTLVTVSA
VL: DIQMNQSPSSLSASLGDTITITCHASQNINVWLSWYQQKPGNIPKLLIYKASNLHTGVPSRFSGSGSGTGFSLTISSLQPEDIATYYCQQAQSYPRTFGGGTKLEIKR
notes: It is kept apart because the two clones were tested separately; Mouse IgG1; Leader ranges were derived as for m1

From patent US20250296994A1 (SYSMEX, published 2025)
